# Reference: article PMC11574045, “A cofactor-induced repressive type of transcription factor condensation can be induced by synthetic peptides to suppress tumorigenesis” (The EMBO Journal, 2024)
# B1: ZBTB26 (protein, UniProt Q9HCK0 1-441, looked up)
# Zinc finger and BTB …: MSERSDLLHFKFENYGDSMLQKMNKLREENKFCDVTVLIDDIEVQGHKIVFAAGSPFLRDQFLLNDSREVKISILQSSEVGRQLLLSCYSGVLEFPEMELVNYLTAASFLQMSHIVERCTQALWKFIKPKQPMDSKEGCEPQSASPQSKEQQGDARGSPKQDSPCIHPSEDSMDMEDSDIQIVKVESIGDVSEVRSKKDQNQFISSEPTALHSSEPQHSLINSTVENRVSEIEQNHLHNYALSYTGSDNIIMASKDVFGPNIRGVDKGLQWHHQCPKCTRVFRHLENYANHLKMHKLFMCLLCGKTFTQKGNLHRHMRVHAGIKPFQCKICGKTFSQKCSLQDHLNLHSGDKPHKCNYCDMVFAHKPVLRKHLKQLHGKNSFDNANERNVQDLTVDFDSFACTTVTDSKGCQPQPDATQVLDAGKLAQAVLNLRNDSTCVN
# B2: ZBTB38 (protein, UniProt Q8NAP3 1-1195, looked up)
# Zinc finger and BTB …: MTVMSLSRDLKDDFHSDTVLSILNEQRIRGILCDVTIIVEDTKFKAHSNVLAASSLYFKNIFWSHTICISSHVLELDDLKAEVFTEILNYIYSSTVVVKRQETVTDLAAAGKKLGISFLEDLTDRNFSNSPGPYVFCITEKGVVKEEKNEKRHEEPAITNGPRITNAFSIIETENSNNMFSPLDLRASFKKVSDSMRTASLCLERTDVCHEAEPVRTLAEHSYAVSSVAEAYRSQPVREHDGSSPGNTGKENCEALAAKPKTCRKPKTFSIPQDSDSATENIPPPPVSNLEVNQERSPQPAAVLTRSKSPNNEGDVHFSREDENQSSDVPGPPAAEVPPLVYNCSCCSKAFDSSTLLSAHMQLHKPTQEPLVCKYCNKQFTTLNRLDRHEQICMRSSHMPIPGGNQRFLENYPTIGQNGGSFTGPEPLLSENRIGEFSSTGSTLPDTDHMVKFVNGQMLYSCVVCKRSYVTLSSLRRHANVHSWRRTYPCHYCNKVFALAEYRTRHEIWHTGERRYQCIFCLETFMTYYILKNHQKSFHAIDHRLSISKKTANGGLKPSVYPYKLYRLLPMKCKRAPYKSYRNSSYENARENSQMNESAPGTYVVQNPHSSELPTLNFQDTVNTLTNSPAIPLETSACQDIPTSANVQNAEGTKWGEEALKMDLDNNFYSTEVSVSSTENAVSSDLRAGDVPVLSLSNSSENAASVISYSGSAPSVIVHSSQFSSVIMHSNAIAAMTSSNHRAFSDPAVSQSLKDDSKPEPDKVGRFASRPKSIKEKKKTTSHTRGEIPEESNYVADPGGSLSKTTNIAEETSKIETYIAKPALPGTSTNSNVAPLCQITVKIGNEAIVKRHILGSKLFYKRGRRPKYQMQEEPLPQGNDPEPSGDSPLGLCQSECMEMSEVFDDASDQDSTDKPWRPYYNYKPKKKSRQLKKMRKVNWRKEHGNRSPSHKCKYPAELDCAVGKAPQDKPFEEEETKEMPKLQCELCDGDKAVGAGNQGRPHRHLTSRPYACELCAKQFQSPSTLKMHMRCHTGEKPYQCKTCGRCFSVQGNLQKHERIHLGLKEFVCQYCNKAFTLNETLKIHERIHTGEKRYHCQFCFQRFLYLSTKRNHEQRHIREHNGKGYACFQCPKICKTAAALGMHQKKHLFKSPSQQEKIGDVCHENSNPLENQHFIGSEDNDQKDNIQTGVENVVL
# B3: ZBTB37 (protein, UniProt Q5TC79 1-503, looked up)
# Zinc finger and BTB …: MEKGGNIQLEIPDFSNSVLSHLNQLRMQGRLCDIVVNVQGQAFRAHKVVLAASSPYFRDHMSLNEMSTVSISVIKNPTVFEQLLSFCYTGRICLQLADIISYLTAASFLQMQHIIDKCTQILEGIHFKINVAEVEAELSQTRTKHQERPPESHRVTPNLNRSLSPRHNTPKGNRRGQVSAVLDIRELSPPEESTSPQIIEPSSDVESREPILRINRAGQWYVETGVADRGGRSDDEVRVLGAVHIKTENLEEWLGPENQPSGEDGSSAEEVTAMVIDTTGHGSVGQENYTLGSSGAKVARPTSSEVDRFSPSGSVVPLTERHRARSESPGRMDEPKQPSSQVEESAMMGVSGYVEYLREQEVSERWFRYNPRLTCIYCAKSFNQKGSLDRHMRLHMGITPFVCRMCGKKYTRKDQLEYHIRKHTGNKPFHCHVCGKSFPFQAILNQHFRKNHPGCIPLEGPHSISPETTVTSRGQAEEESPSQEETVAPGEAVQGSVSTTGPD
# B4: ZBTB44 (protein, UniProt Q8NCP5 1-570, looked up)
# Zinc finger and BTB …: MGVKTFTHSSSSHSQEMLGKLNMLRNDGHFCDITIRVQDKIFRAHKVVLAACSDFFRTKLVGQAEDENKNVLDLHHVTVTGFIPLLEYAYTATLSINTENIIDVLAAASYMQMFSVASTCSEFMKSSILWNTPNSQPEKGLDAGQENNSNCNFTSRDGSISPVSSECSVVERTIPVCRESRRKRKSYIVMSPESPVKCGTQTSSPQVLNSSASYSENRNQPVDSSLAFPWTFPFGIDRRIQPEKVKQAENTRTLELPGPSETGRRMADYVTCESTKTTLPLGTEEDVRVKVERLSDEEVHEEVSQPVSASQSSLSDQQTVPGSEQVQEDLLISPQSSSIGSVDEGVSEGLPTLQSTSSTNAPPDDDDRLENVQYPYQLYIAPSTSSTERPSPNGPDRPFQCPTCGVRFTRIQNLKQHMLIHSGIKPFQCDRCGKKFTRAYSLKMHRLKHEGKRCFRCQICSATFTSFGEYKHHMRVSRHIIRKPRIYECKTCGAMFTNSGNLIVHLRSLNHEASELANYFQSSDFLVPDYLNQEQEETLVQYDLGEHGFESNSSVQMPVISQYHSKGKEP
# B5: ZBTB43 (protein, UniProt O43298 1-467, looked up)
# Zinc finger and BTB …: MEPGTNSFRVEFPDFSSTILQKLNQQRQQGQLCDVSIVVQGHIFRAHKAVLAASSPYFCDQVLLKNSRRIVLPDVMNPRVFENILLSSYTGRLVMPAPEIVSYLTAASFLQMWHVVDKCTEVLEGNPTVLCQKLNHGSDHQSPSSSSYNGLVESFELGSGGHTDFPKAQELRDGENEEESTKDELSSQLTEHEYLPSNSSTEHDRLSTEMASQDGEEGASDSAEFHYTRPMYSKPSIMAHKRWIHVKPERLEQACEGMDVHATYDEHQVTESINTVQTEHTVQPSGVEEDFHIGEKKVEAEFDEQADESNYDEQVDFYGSSMEEFSGERSDGNLIGHRQEAALAAGYSENIEMVTGIKEEASHLGFSATDKLYPCQCGKSFTHKSQRDRHMSMHLGLRPYGCGVCGKKFKMKHHLVGHMKIHTGIKPYECNICAKRFMWRDSFHRHVTSCTKSYEAAKAEQNTTEAN
# B6: ZBTB21 (protein, UniProt Q9ULJ3 1-1066, looked up)
# Zinc finger and BTB …: MEGLLHYINPAHAISLLSALNEERLKGQLCDVLLIVGDQKFRAHKNVLAASSEYFQSLFTNKENESQTVFQLDFCEPDAFDNVLNYIYSSSLFVEKSSLAAVQELGYSLGISFLTNIVSKTPQAPFPTCPNRKKVFVEDDENSSQKRSVIVCQSRNEAQGKTVSQNQPDVSHTSRPSPSIAVKANTNKPHVPKPIEPLHNLSLTEKSWPKDSSVVYAKSLEHSGSLDDPNRISLVKRNAVLPSKPLQDREAMDDKPGVSGQLPKGKALELALKRPRPPVLSVCSSSETPYLLKETNKGNGQGEDRNLLYYSKLGLVIPSSGSGSGNQSIDRSGPLVKSLLRRSLSMDSQVPVYSPSIDLKSSQGSSSVSSDAPGNVLCALSQKSSLKDCSEKTALDDRPQVLQPHRLRSFSASQSTDREGASPVTEVRIKTEPSSPLSDPSDIIRVTVGDAATTAAASSSSVTRDLSLKTEDDQKDMSRLPAKRRFQADRRLPFKKLKVNEHGSPVSEDNFEEGSSPTLLDADFPDSDLNKDEFGELEGTRPNKKFKCKHCLKIFRSTAGLHRHVNMYHNPEKPYACDICHKRFHTNFKVWTHCQTQHGIVKNPSPASSSHAVLDEKFQRKLIDIVREREIKKALIIKLRRGKPGFQGQSSSQAQQVIKRNLRSRAKGAYICTYCGKAYRFLSQFKQHIKMHPGEKPLGVNKVAKPKEHAPLASPVENKEVYQCRLCNAKLSSLLEQGSHERLCRNAAVCPYCSLRFFSPELKQEHESKCEYKKLTCLECMRTFKSSFSIWRHQVEVHNQNNMAPTENFSLPVLDHNGDVTGSSRPQSQPEPNKVNHIVTTKDDNVFSDSSEQVNFDSEDSSCLPEDLSLSKQLKIQVKEEPVEEAEEEAPEASTAPKEAGPSKEASLWPCEKCGKMFTVHKQLERHQELLCSVKPFICHVCNKAFRTNFRLWSHFQSHMSQASEESAHKESEVCPVPTNSPSPPPLPPPPPLPKIQPLEPDSPTGLSENPTPATEKLFVPQESDTLFYHAPPLSAITFKRQFMCKLCHRTFKTAFSLWSHEQTHN
# B7: ZBTB4 (protein, UniProt Q9P1Z0 1-1013, looked up)
# Zinc finger and BTB …: MPPPAEVTDPSHAPAVLRQLNEQRLRGLFCDVTLIAGDTKFPAHRSVLAASSPFFREALLTSAPLPLPPATGGAAPNPATTTAASSSSSSSSSSSSSSSSASSSSSSSSSSPPPASPPASSPPRVLELPGVPAAAFSDVLNFIYSARLALPGGGGDGAAVAEIGALGRRLGISRLQGLGEGGDAWVPPTPAPMATSQPEEDSFGPGPRPAGEWEGDRAEAQAPDLQCSLPRRPLPCPQCGKSFIHPKRLQTHEAQCRRGASTRGSTGLGAGGAGPGGPAGVDASALPPPVGFRGGPEHVVKVVGGHVLYVCAACERSYVTLSSLKRHSNVHSWRRKYPCRYCEKVFALAEYRTKHEVWHTGERRYQCIFCWETFVTYYNLKTHQRAFHGISPGLLASEKTPNGGYKPKLNTLKLYRLLPMRAAKRPYKTYSQGAPEAPLSPTLNTPAPVAMPASPPPGPPPAPEPGPPPSVITFAHPAPSVIVHGGSSSGGGGSGTASTGGSQAASVITYTAPPRPPKKREYPPPPPEPAATPTSPATAVSPATAAGPAMATTTEEAKGRNPRAGRTLTYTAKPVGGIGGGGGPPTGAGRGPSQLQAPPPLCQITVRIGEEAIVKRRISETDLRPGELSGEEMEESEEDEEEEDEEEEEEDEEESKAGGEDQLWRPYYSYKPKRKAGAAGGASVGGSGLPRGRRPPRWRQKLERRSWEETPAAESPAGRARTERRHRCGDCAQTFTTLRKLRKHQEAHGGGSHSSRAGRRPSTRFTCPHCAKVCKTAAALSRHGQRHAAERPGGTPTPVIAYSKGSAGTRPGDVKEEAPQEMQVSSSSGEAGGGSTAAEEASETASLQDPIISGGEEPPVVASGGSYVYPPVQEFPLALIGGGREPGGGRGKSGSEGPVGAGEGDRMEGIGAAKVTFYPEPYPLVYGPQLLAAYPYNFSNLAALPVALNMVLPDEKGAGALPFLPGVFGYAVNPQAAPPAPPTPPPPTLPPPIPPKGEGERAGVERTQKGDVG
# B8: ZBTB48 (protein, UniProt P10074 1-688, looked up)
# Zinc finger and BTB …: MDGSFVQHSVRVLQELNKQREKGQYCDATLDVGGLVFKAHWSVLACCSHFFQSLYGDGSGGSVVLPAGFAEIFGLLLDFFYTGHLALTSGNRDQVLLAARELRVPEAVELCQSFKPKTSVGQAAGGQSGLGPPASQNVNSHVKEPAGLEEEEVSRTLGLVPRDQEPRGSHSPQRPQLHSPAQSEGPSSLCGKLKQALKPCPLEDKKPEDCKVPPRPLEAEGAQLQGGSNEWEVVVQVEDDGDGDYMSEPEAVLTRRKSNVIRKPCAAEPALSAGSLAAEPAENRKGTAVPVECPTCHKKFLSKYYLKVHNRKHTGEKPFECPKCGKCYFRKENLLEHEARNCMNRSEQVFTCSVCQETFRRRMELRVHMVSHTGEMPYKCSSCSQQFMQKKDLQSHMIKLHGAPKPHACPTCAKCFLSRTELQLHEAFKHRGEKLFVCEECGHRASSRNGLQMHIKAKHRNERPHVCEFCSHAFTQKANLNMHLRTHTGEKPFQCHLCGKTFRTQASLDKHNRTHTGERPFSCEFCEQRFTEKGPLLRHVASRHQEGRPHFCQICGKTFKAVEQLRVHVRRHKGVRKFECTECGYKFTRQAHLRRHMEIHDRVENYNPRQRKLRNLIIEDEKMVVVALQPPAELEVGSAEVIVESLAQGGLASQLPGQRLCAEESFTGPGVLEPSLIITAAVPEDCDT
# Tested on: HEK293FT cells transfected with TF library
# Assay: Screening of TF condensates based on fluorescent puncta
# Format: cell-based
# Details: Figure 1B numerical data; TF library screen, one value per transcriptional factor
# Outline: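 Cells were seeded onto plasmid/PEI-loaded wells (plasmid 1.6 μg/ml final) and grown 60 h. Medium with or without glucose followed for 12 h. Fixed, permeabilized cells were stained against Flag or GAL4 tags, and condensate puncta were quantified from 50 random fields per well.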
row,Molecule,Z score of condensed fraction
1,B1,0.2152
2,B2,-1.284
3,B3,0.3942
4,B4,-0.608
5,B5,0.02104
6,B6,-0.7871
7,B7,1.258
8,B8,0.7506
